# Measurements from US12559745B2, “Methods and compositions for linking RNA stem loops” (THE REGENTS OF THE UNIVERSITY OF CALIFORNIA, priority 2020, dated 2026).
# Several values for one entry are separate records, joined by “and”; a condition that tells them apart may be missing. Equal values may be shown once. Entries after “also recorded” stand apart in the source; their conditions may differ.
# B1: sgRNA-2: sgRNA with 17-nt Tag stem loop substituted for the tetra loop, SEQ ID NO:10 (nucleic acid)
# guide: NNNNNNNNNNNNNNNNNNNNGTTTTAGAGCTAGCAGACTGTAAATCTGCTAGCAAGTTAAAATAAGGCTAGTCCGTTATCAACTTGAAAAAGTGGCACCGAGTCGGTGC
# modifications: listed as DNA, chemistry not given here
# B2: sgRNA-1: sgRNA with 17-nt Tag inserted at the 5′-end, SEQ ID NO:9 (nucleic acid)
# guide: GCAGACTGTAAATCTGCTTTTNNNNNNNNNNNNNNNNNNNNGTTTTAGAGCTAGAAATAGCAAGTTAAAATAAGGCTAGTCCGTTATCAACTTGAAAAAGTGGCACCGAGTCGGTGC
# modifications: listed as DNA, chemistry not given here
# B3: sgRNA-5: sgRNA with 17-nt Tag stem loop substituted for stem loop 3, SEQ ID NO:13 (nucleic acid)
# guide: NNNNNNNNNNNNNNNNNNNNGTTTTAGAGCTAGAAATAGCAAGTTAAAATAAGGCTAGTCCGTTATCAACTTGAAAAAGTGGCACCGAGCAGACTGTAAATCTGCTCGGTGC
# modifications: listed as DNA, chemistry not given here
# B4: wt-sgRNA: wild-type single-guide RNA, SEQ ID NO:8 (nucleic acid)
# guide: CTAATACGACTCACTATANNNNNNNNNNNNNNNNNNNNGTTTTAGAGCTAGAAATAGCAAGTTAAAATAAGGCTAGTCCGTTATCAACTTGAAAAAGTGGCACCGAGTCGGTGCTTTTTT
# modifications: target site or template, no part of the molecule; listed as DNA, chemistry not given here
# B5: sgRNA-7: sgRNA with two Tag sequences inserted at both the tetraloop and stem loop 2, SEQ ID NO:15 (nucleic acid)
# guide: NNNNNNNNNNNNNNNNNNNNGTTTTAGAGCTAGCAGACTGTAAATCTGCTAGCAAGTTAAAATAAGGCTAGTCCGTTATCAACTTGCAGACTGTAAATCTGCAAGTGGCACCGAGTCGGTGC
# modifications: listed as DNA, chemistry not given here
# B6: sgRNA-9: sgRNA-7 with Tag stems truncated by 4 base pairs, SEQ ID NO:17; targets DYRK1A (nucleic acid)
# guide: NNNNNNNNNNNNNNNNNNNNGTTTTAGAGCTAACTGTAAATTAGCAAGTTAAAATAAGGCTAGTCCGTTATCAACTTACTGTAAATAAGTGGCACCGAGTCGGTGC
# modifications: chemistry not given here
# notes: targets DYRK1A
# B7: sgRNA-4: sgRNA with 17-nt Tag stem loop substituted for stem loop 2, SEQ ID NO:12 (nucleic acid)
# guide: NNNNNNNNNNNNNNNNNNNNGTTTTAGAGCTAGAAATAGCAAGTTAAAATAAGGCTAGTCCGTTATCAACTTGCAGACTGTAAATCTGCAAGTGGCACCGAGTCGGTGC
# modifications: listed as DNA, chemistry not given here
# B8: sgRNA-3: sgRNA with 17-nt Tag stem loop substituted for stem loop 1, SEQ ID NO:11 (nucleic acid)
# guide: NNNNNNNNNNNNNNNNNNNNGTTTTAGAGCTAGAAATAGCAAGTTAAAATAAGGCGCAGACTGTAAATCTGCGTCCGTTATCAACTTGAAAAAGTGGCACCGAGTCGGTGC
# modifications: listed as DNA, chemistry not given here
# Key:
# [1] = In vitro photo-cleavage (uncaging) assay, LED irradiation followed by denaturing PAGE; format: physicochemical
# [2] = system: 60 bp DNA substrate containing the sgRNA-9 target sequence; test: In vitro binding assay, Cas9-sgRNA-DNA ternary complex formation (native PAGE); settings: pre-formed RNP plus 20 nM DNA substrate, 37° C., 90 seconds; 5% native TBE-PAGE
# DYRK1A genome locus = test: CRISPR-Cas9 gene editing in Cas9-expressing HEK-293 cells, INDEL rate by Sanger sequencing / ICE tool; format: cell-based; settings: for gene editing activity (INDEL rate) of unmodified sgRNA: unmodified (linear) sgRNA with Tag sequence(s), transfected into Cas9-expressing HEK-293 cells, compared with wild-type sgRNA
# Description: We asked whether RNA-CLAMP could be used to control CRISPR-Cas9 editing via cyclization of the sgRNA. The sgRNA is highly structured when in complex with dCas9 and target DNA, forming three stem loops and one tetraloop, with some of the stem loops being tolerant to mutations.^[18] A sgRNA contains four stem-loops and two free ends (FIGS. 3A and 3B). We screened the 17-nt Tag recognition sequence (GCAGACUGUAAAUCUGC) (SEQ ID NO:1) at all 6 potential labeling sites within the sgRNA: insertion at the 5′-end (sgRNA-1) or 3′-end (sgRNA-6) and substituting the 17-nt Tag stem loop for either the tetra loop (sgRNA-2), stem loop 1 (sgRNA-3), stem loop 2 (sgRNA-4) or stem loop 3 (sgRNA-5) (FIG. 12). All the sgRNAs target the DYRK1A genome locus.^[32] To screen for activity, we transiently transfected the sgRNAs into HEK-293 cells stably expressing Cas9 protein. Three days after transfection, genomic DNA was harvested and the sgRNA targeted region was amplified by PCR. Sanger sequencing results were analyzed using the ICE tool to determine the INDEL rate, which is representative of the gene editing efficiency of the sgRNA.^[33]
# To obtain optimal gene editing efficiency, we examined different Cas9 delivery approaches, including transfection or electroporation of Cas9 vector or mRNA, electroporation of Cas9-sgRNA RNP complex and sequential transfection of Cas9-mRNA and sgRNA. The gene editing efficiency varies from 20% INDEL to 80% INDEL with different delivery strategies. We constructed an engineered mammalian single-colony HEK-293 cell line that stably expresses Cas9 enzyme using the lentiviral approach. To quantify the activity of sgRNA, we delivered sgRNA1 to sgRNA6 into the HEK-293-Cas9 cells using lipofectamine RNAiMAX. One day after transfection, culturing medium was exchanged with fresh full-growth medium (DMEM with 10% FBS). Three days after transfection, genomic DNA was extracted from the cells, following by PCR amplification of the sgRNA targeted region. The PCR amplified DNA fragments were further analyzed by either the T7E1 nuclease digestion assay or by Sanger sequencing to quantify gene knockouts efficiency of the targeted region.^25,26 […]
# Gene editing experiments were performed following previously reported protocols.^[2] For gene editing experiments using HEK-293-Cas9 cell line, 250 ng sgRNA and 0.5 μL Lipofectamine RNAiMAX were used to form the Lipo-RNA complex. The formed complex was added with 150 μL DMEM (10% FBS) containing 40K HEK-293-Cas9 cells. The transfection was performed in a 96-well plate format. 24 hours after transfection, cell medium was changed to complete DMEM medium. At day 4, genomic DNA was extracted using 80 μL QuickExtract™ DNA Extraction Solution (Lucigen, catalog number: QE09050). Following the manufacturer's protocol, the extraction solution was heated at 65° C. for 15 minutes and then at 95° C. for another 15 minutes. The resulting solution was diluted using water at a 1:10 ratio. The diluted product was directly used as a template for PCR amplification of the genomic region. For PCR amplification of the genomic region, Q5 HOTSTART HIFI DNA polymerase 2× master mix was used following the manufacturer's protocol without further optimization. The primers used for amplifying the DYRK1A and GRIN2B genome locus are listed below.
# Crude PCR products were column purified using a Zymo DNA purification kit. The purified PCR amplicon was analyzed by Sanger sequencing to estimate INDEL % using the ICE tool.^[3] The wt-sgRNA gene editing INDEL % was usually around 70-80% following this protocol.
# HEK-293 cells = test: Gene editing in HEK-293 wild-type cell line with Cas9 mRNA transfected one day before sgRNA; format: cell-based; settings: HEK-293 wild-type cells, Cas9 mRNA transfection; usual value
# Description: For gene editing experiments performed using a HEK-293 wild-type cell line, mRNA encoding the Cas9 protein (Trilink, catalog number L-7206-20) was transfected into HEK-293 cells one day prior to sgRNA transfection. For mRNA transfection, Lipo-RNA complex was formed by using 500 ng mRNA, 0.9 μL Lipofectamine RNAiMAX in 50 μL total volume, combined with 150 μL DMEM complete medium containing 40K HEK-293 cells. At day 2, sgRNA transfection was performed following the protocol described in the previous section. The wt-sgRNA gene editing INDEL % was usually around 40-50% following this protocol.
# Cas9 protein = biological target: T1, Cas9 protein (Streptococcus pyogenes serotype M1, UniProt Q99ZW2); test: In vitro binding assay, Cas9-sgRNA RNP formation (gel shift, native PAGE); settings: 200 nM Cas9, 200 nM sgRNA
# T1 construct: purchased NEB M0646T
molecule,measurement,setting,value
COc1cc(C(C)OC(=O)NCCCCCCNCc2c[nH]c3nc(N)[nH]c(=O)c23)c([N+](=O)[O-])cc1OCCCC(=O)NCCOCCOCCOCCOCc1cn(CC(=O)NCCCCCCNCc2c[nH]c3nc(N)[nH]c(=O)c23)nn1 (stereo not drawn) [preQ1-NB-preQ1],wavelength of light that photo-cleaves the linker,[1],356-390 nm and 390 nm
CCN(CC)c1ccc2c(C(CCCn3cc(COCCC(=O)NCCCCCCNCc4c[nH]c5nc(N)[nH]c(=O)c45)nn3)OC(=O)NCCCCCCNCc3c[nH]c4nc(N)[nH]c(=O)c34)cc(=O)oc2c1 (stereo not drawn) [preQ1-DEACM-preQ1],wavelength of light that photo-cleaves the linker,[1],405-456 nm
"sgRNA-12: sgRNA targeting the sequence between the mCherry and GFP genes of the surrogate reporter, SEQ ID NO:40 (guide GTTCAGGGCTTGACCAACAC; listed as DNA, chemistry not fully specified)",formation of Cas9-sgRNA-DNA ternary complex,[2],no Cas9-sgRNA-DNA complex was observed
B1,gene editing activity (INDEL rate) of unmodified sgRNA,DYRK1A genome locus,wild-type level gene editing activity; also recorded: retained wild-type level activity
B2,gene editing activity (INDEL rate) of unmodified sgRNA,DYRK1A genome locus,significantly reduced activity
B3,gene editing activity (INDEL rate) of unmodified sgRNA,DYRK1A genome locus,significantly reduced activity
B4,gene editing INDEL %,"DYRK1A genome locus; HEK-293-Cas9 cell line protocol, usual value",70-80%
same,gene editing INDEL %,HEK-293 cells,40-50%
B5,INDELs,"DYRK1A genome locus; HEK-293 cells, clamped with preQ1-PEG10-preQ1 and gel purified, versus unmodified (linear) form",80.7%
same,gene editing activity (INDEL rate) of unmodified sgRNA,DYRK1A genome locus,wild-type level gene editing activity; also recorded: did not compromise gene editing activity
same,integrity of unlabeled sgRNA under 456 nm irradiation,"[1]; 456 nm LED, 3 minutes",harmless to the integrity
B6,formation of Cas9-sgRNA RNP,Cas9 protein,observed; also recorded: detected in lane 4
same,formation of Cas9-sgRNA-DNA ternary complex,[2],observed the formation of the Cas9-sgRNA-DNA ternary complex; also recorded: detected in lane 5
B7,gene editing activity (INDEL rate) of unmodified sgRNA,DYRK1A genome locus,wild-type level gene editing activity; also recorded: retained wild-type level activity
B8,gene editing activity (INDEL rate) of unmodified sgRNA,DYRK1A genome locus,significantly reduced activity
